The chains are these.
B1: SEQ ID NO 238 (designed binder, not shown: small tags and cut ends)
chain: MLPAPKNLVVSRVTEDSARLSWTTPDAAFDSFYIAYAEPRPDGEAIRLQVPGSERSYDLTGLKPGTEYSVLIHGVKGGLLSSPLGFTT
B2: SEQ ID NO 224 (designed binder, not shown: small tags and cut ends)
chain: MLPAPKNLVVSRVTEDSARLSWTAPDAAFDSFYIAYAEPRPDGEAILLRVPGSERSYDLTGLKPGTEYSVLIHGVKGGLLSSPLVAEFTT
B3: SEQ ID NO 236 (designed binder, not shown: small tags and cut ends)
chain: B2 chain with R49Q, V85D
B4: SEQ ID NO 239 (designed binder, not shown: small tags and cut ends)
chain: B2 chain with L47Q, R49V, V85Y, E87I
B5: SEQ ID NO 240 (designed binder, not shown: small tags and cut ends)
chain: B2 chain with L47S, R49S, V85H, E87K
B6: SEQ ID NO 233 (designed binder, not shown: small tags and cut ends)
chain: B2 chain with L47Q, R49F, V85K, E87Y
B7: SEQ ID NO 226 (designed binder, not shown: small tags and cut ends)
chain: B2 chain with L47G, R49H, V85T, E87S
B8: SEQ ID NO 228 (designed binder, not shown: small tags and cut ends)
chain: B2 chain with L47V, V85A, E87S
B9: SEQ ID NO 230 (designed binder, not shown: small tags and cut ends)
chain: B2 chain with L47W, R49L, E87F
B10: SEQ ID NO 234 (designed binder, not shown: small tags and cut ends)
chain: B2 chain with L47V, R49V, V85S, E87I
B11: SEQ ID NO 225 (designed binder, not shown: small tags and cut ends)
chain: B2 chain with R49Q, V85S, E87S
B12: SEQ ID NO 227 (designed binder, not shown: small tags and cut ends)
chain: B2 chain with L47G, V85S, E87I
B13: SEQ ID NO 229 (designed binder, not shown: small tags and cut ends)
chain: B2 chain with L47Q, R49L, E87H
B14: SEQ ID NO 237 (designed binder, not shown: small tags and cut ends)
chain: B2 chain with L47V, R49A, V85Y, E87S
B15: SEQ ID NO 223 (designed binder, not shown: small tags and cut ends)
chain: MLPAPKNLVVSRVTEDSARLSWTAPDAAFDSFFIGYLEPQPPGEAIGLAVPGSERSYDLTGLKPGTEYNVTIQGVKGGFPSVPLQANFTT
B16: SEQ ID NO 231 (designed binder, not shown: small tags and cut ends)
chain: B15 chain with G47H, A49Y, V82D, Q85D, N87V
B17: SEQ ID NO 235 (designed binder, not shown: small tags and cut ends)
chain: B15 chain with G47Q, A49T, V82L, Q85S, N87D
B18: SEQ ID NO 232 (designed binder, not shown: small tags and cut ends)
chain: MLPAPKNLVVSRVTEDSARLSWTAPDAAFDSFFIGYLEPQPPGEAIYLDVPGSERSYDLTGLKPGTEYNVTIQGVKGGFPSTFTT

Changes are numbered by the printed parent chain.

This is an account of results in patent US20220332795A1.

Chain of human serum albumin (human) (P02768 25-609 limits assumed): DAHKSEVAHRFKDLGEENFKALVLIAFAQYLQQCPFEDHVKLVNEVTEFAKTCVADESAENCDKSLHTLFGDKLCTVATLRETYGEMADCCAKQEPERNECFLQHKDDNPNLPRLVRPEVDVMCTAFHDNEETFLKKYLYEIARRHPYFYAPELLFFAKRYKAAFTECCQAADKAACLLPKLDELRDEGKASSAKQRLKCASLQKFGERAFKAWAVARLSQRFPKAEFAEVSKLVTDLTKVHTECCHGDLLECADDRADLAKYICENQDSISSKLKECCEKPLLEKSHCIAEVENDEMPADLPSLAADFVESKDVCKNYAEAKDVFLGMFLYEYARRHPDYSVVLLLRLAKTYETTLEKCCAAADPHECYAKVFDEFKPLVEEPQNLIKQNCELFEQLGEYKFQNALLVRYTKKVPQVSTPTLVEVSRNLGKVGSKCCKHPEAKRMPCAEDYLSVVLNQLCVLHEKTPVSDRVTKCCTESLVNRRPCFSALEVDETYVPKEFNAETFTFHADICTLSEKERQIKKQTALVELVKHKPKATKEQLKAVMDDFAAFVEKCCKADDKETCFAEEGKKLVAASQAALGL

This assay has as its target human serum albumin (human) (UniProt P02768). Briefly: solution ELISA screen (luminescence). On the technique in general: In an ELISA, binding on a coated surface is turned into a signal by an enzyme label.
Take B1: the RLU was 99000 RLU.

Take B2: the RLU came to 26200 RLU.

In turn, B3 returned an RLU of 15600 RLU.

As for B4, the RLU was found to be 21100 RLU.

Molecule B5 yielded an RLU of 18000 RLU.

B6 gave an RLU of 22000 RLU.

Molecule B7 came in with an RLU of 16000 RLU.

Molecule B8 gave an RLU of 29600 RLU.

Molecule B9 gave an RLU of 32000 RLU.

Turning to B10, the RLU worked out at 20800 RLU.

Turning to B11, the RLU was 17000 RLU.

The molecule B12 gave an RLU of 28200 RLU.

For the molecule B13, the RLU came out at 15400 RLU.

Molecule B14 displayed an RLU of 27700 RLU.

For B15, the RLU was determined as 18300 RLU.

B16 returned an RLU of 20600 RLU.

B17 returned an RLU of 23800 RLU.

B18 registered an RLU of 75400 RLU.
